# T1: endogenous human DLL3 on NCI-H82 cells (human, UniProt Q9NYJ7 27-618)
# T1 sequence (looked up): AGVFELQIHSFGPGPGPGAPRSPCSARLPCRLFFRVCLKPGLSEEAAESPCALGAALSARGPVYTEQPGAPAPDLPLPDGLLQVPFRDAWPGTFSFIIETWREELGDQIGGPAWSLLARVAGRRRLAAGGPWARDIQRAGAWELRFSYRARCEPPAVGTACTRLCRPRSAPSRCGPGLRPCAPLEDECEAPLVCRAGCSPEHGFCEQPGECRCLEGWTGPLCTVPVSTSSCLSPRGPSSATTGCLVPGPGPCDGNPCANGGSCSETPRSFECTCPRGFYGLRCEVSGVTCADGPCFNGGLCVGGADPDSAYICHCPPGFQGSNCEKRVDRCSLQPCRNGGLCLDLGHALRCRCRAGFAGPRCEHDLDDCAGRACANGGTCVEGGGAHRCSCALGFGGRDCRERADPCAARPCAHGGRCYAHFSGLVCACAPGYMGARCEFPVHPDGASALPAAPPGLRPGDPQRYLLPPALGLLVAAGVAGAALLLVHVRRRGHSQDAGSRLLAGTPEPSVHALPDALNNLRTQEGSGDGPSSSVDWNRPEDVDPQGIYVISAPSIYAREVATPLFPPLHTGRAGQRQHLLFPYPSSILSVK
# T2: DLL1 (UniProt O00548 18-545, limits assumed)
# T2 sequence (looked up): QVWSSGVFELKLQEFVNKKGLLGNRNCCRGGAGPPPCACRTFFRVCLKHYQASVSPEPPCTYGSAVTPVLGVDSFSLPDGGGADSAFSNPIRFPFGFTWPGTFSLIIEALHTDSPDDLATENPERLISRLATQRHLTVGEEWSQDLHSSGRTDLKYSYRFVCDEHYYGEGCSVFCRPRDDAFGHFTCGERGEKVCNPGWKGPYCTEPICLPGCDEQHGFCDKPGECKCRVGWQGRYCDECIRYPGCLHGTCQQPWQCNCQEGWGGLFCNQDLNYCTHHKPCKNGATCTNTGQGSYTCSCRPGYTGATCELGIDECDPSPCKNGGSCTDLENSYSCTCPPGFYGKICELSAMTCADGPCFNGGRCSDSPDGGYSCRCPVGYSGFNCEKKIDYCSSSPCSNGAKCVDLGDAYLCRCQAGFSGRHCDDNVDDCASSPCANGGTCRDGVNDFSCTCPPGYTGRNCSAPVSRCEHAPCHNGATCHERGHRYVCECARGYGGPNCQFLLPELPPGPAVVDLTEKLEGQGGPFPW
# T3: full-length cynomologus DLL3 on transfected HEK293 cells (cynomologus, UniProt A0A2K5WSR1 27-585)
# T3 construct: also called 293 cyno DLL3
# T3 sequence: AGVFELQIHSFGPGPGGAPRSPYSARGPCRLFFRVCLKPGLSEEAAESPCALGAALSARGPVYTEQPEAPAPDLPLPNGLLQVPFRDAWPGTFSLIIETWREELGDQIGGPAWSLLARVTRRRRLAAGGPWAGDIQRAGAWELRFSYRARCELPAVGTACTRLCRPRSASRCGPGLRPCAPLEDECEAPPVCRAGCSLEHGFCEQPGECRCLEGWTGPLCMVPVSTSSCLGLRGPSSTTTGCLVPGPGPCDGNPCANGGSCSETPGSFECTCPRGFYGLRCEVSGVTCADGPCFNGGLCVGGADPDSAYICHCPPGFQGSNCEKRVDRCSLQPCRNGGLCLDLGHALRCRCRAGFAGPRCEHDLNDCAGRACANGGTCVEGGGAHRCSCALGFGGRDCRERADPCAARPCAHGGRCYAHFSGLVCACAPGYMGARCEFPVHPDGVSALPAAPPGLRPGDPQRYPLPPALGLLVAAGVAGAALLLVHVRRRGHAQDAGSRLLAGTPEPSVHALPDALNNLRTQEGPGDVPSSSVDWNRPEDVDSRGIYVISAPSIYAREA
# T4: full-length human DLL3 on transfected HEK293 cells (human, UniProt Q9NYJ7 27-618)
# T4 construct: also called 293 hDLL3
# T4 sequence: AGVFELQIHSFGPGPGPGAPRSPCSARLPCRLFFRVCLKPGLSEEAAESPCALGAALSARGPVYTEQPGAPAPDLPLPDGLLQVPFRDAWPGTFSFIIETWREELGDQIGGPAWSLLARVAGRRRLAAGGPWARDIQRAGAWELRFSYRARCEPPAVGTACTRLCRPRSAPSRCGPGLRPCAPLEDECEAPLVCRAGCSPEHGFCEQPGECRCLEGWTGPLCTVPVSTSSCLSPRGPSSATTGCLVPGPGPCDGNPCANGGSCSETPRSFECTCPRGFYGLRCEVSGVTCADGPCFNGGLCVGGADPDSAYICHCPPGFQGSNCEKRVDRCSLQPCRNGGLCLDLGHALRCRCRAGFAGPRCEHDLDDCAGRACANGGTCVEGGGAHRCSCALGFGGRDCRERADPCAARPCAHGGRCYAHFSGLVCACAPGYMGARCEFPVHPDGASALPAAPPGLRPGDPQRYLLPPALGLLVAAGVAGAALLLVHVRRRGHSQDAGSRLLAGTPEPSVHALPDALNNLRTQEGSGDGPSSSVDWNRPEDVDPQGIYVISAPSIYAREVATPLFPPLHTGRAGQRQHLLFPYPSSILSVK
# T5: full-length mouse DLL3 on transfected HEK293 cells (mouse, UniProt O88516 33-584)
# T5 construct: also called 293 mDLL3
# T5 sequence: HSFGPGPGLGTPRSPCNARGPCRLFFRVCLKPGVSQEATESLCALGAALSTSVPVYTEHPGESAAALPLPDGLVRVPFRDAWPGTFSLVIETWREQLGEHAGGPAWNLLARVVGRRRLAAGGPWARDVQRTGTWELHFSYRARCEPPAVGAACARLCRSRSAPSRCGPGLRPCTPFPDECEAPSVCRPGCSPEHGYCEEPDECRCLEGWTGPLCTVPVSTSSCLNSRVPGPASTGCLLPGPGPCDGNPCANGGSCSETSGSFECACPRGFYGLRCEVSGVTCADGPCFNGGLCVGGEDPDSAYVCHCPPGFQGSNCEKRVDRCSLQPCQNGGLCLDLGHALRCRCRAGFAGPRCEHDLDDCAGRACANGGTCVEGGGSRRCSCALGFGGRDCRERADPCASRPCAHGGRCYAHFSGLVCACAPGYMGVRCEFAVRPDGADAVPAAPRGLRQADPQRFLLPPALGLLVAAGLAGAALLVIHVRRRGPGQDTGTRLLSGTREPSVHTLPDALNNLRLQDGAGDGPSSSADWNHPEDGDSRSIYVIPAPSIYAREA
# Tests used:
# [1] = target: T1, endogenous human DLL3 on NCI-H82 cells; test: cell-based or functional assay
# [2] = target: DLL4 (UniProt Q9NR61 27-524, limits assumed); test: FIG. 7; assay not described
# Sequence of DLL4 (Q9NR61 27-524 limits assumed): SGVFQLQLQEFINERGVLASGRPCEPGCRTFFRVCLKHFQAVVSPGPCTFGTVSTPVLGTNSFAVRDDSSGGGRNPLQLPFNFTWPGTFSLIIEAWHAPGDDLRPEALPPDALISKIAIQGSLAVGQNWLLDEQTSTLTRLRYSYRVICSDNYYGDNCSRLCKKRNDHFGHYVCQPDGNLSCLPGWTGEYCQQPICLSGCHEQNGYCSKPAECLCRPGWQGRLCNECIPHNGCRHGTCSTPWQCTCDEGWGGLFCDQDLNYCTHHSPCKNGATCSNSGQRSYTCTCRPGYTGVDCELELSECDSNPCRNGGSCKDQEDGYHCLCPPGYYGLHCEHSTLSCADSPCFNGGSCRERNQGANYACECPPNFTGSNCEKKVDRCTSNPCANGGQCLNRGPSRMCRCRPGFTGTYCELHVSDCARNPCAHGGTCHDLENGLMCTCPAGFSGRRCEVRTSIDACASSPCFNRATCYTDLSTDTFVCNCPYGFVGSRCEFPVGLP
# [3] = target: T2, DLL1; test: FIG. 7; assay not described
# [4] = target: T3, full-length cynomologus DLL3 on …; test: flow cytometry, 10 µg/ml antibody on HEK293 cells transfected with full-length cynomologus DLL3
# Method: (§1) The four monoclonal antibodies (6-G23-F, 2-C8-A, 7-I1-B and 10-O18-A) were tested for their ability to bind to mouse and cynomologus DLL3 as well as endogenous human DLL3 by flow cytometry. For this purpose, HEK293 cells were transfected with plasmid DNA encoding full-length human, mouse or cynomologus DLL3 and used in the experiment. Briefly 10⁶ transfected HEK293 cells or NCI-H82 primary cells were added in FACS buffer PBS 0.5% BSA to the wells of a 96 well U bottom plate and purified monoclonal added to 10 μg/ml. After 30 minutes incubation at 4° C. the cells were washed 3 times in FACS buffer and incubated with a PE labelled F(ab)2 anti-mouse IgG H and L 2nd stage. After another 30 minutes incubation at 4° C. the cells were washed three times in FACS buffer and analyzed on the flow cytometer. Data are presented at the ratio of the Mean Fluorescent Intensity for the monoclonal divided by the background staining with the 2nd stage. As shown in the Table below, all of the monoclonal antibodies cross reacted with cynomologus DLL3 and detected endogenous DLL3 on NCI H82 cells but only 6-G23-F and 7-I1-B bound to mouse DLL3.
# [5] = target: T4, full-length human DLL3 on transfected …; test: flow cytometry, 10 µg/ml antibody on HEK293 cells transfected with full-length human DLL3
# Method: as §1
# [6] = target: T1, endogenous human DLL3 on NCI-H82 cells; test: cell-based or functional assay; remark: listed apart in the source
# [7] = target: T1, endogenous human DLL3 on NCI-H82 cells; test: flow cytometry, 10 µg/ml antibody on NCI-H82 cells (endogenous DLL3)
# Method: as §1
# [8] = target: T1, endogenous human DLL3 on NCI-H82 cells; test: cell-based or functional assay; remark: listed apart in the source
# [9] = target: T5, full-length mouse DLL3 on transfected …; test: flow cytometry, 10 µg/ml antibody on HEK293 cells transfected with full-length mouse DLL3
# Method: as §1
Binder,FAB ZAP % SC16 Max Killing (saporin Fab ZAP cytotoxicity on NCI-H82 cells) [1],binding result [2],binding result [3],ratio of the Mean Fluorescent Intensity for the monoclonal divided by the background staining with the 2nd stage [4],ratio of the Mean Fluorescent Intensity for the monoclonal divided by the background staining with the 2nd stage [5],"Dy light Dy658 Fluorescence (% of the Control Reference Monoclonal Antibody), quenching internalization assay on NCI-H82 cells [6]",ratio of the Mean Fluorescent Intensity for the monoclonal divided by the background staining with the 2nd stage [7],"MFI Ratio (4° C. / 37° C. staining, 4/37 internalization assay on NCI-H82 cells) [8]",ratio of the Mean Fluorescent Intensity for the monoclonal divided by the background staining with the 2nd stage [9]
"2-C8-A (antibody, V domains shown, Purified hybridoma monoclonal from Ablexis AlivaMAb Kappa mice; the antibody was captured on anti-mouse Fc sensors and detected with anti-mouse IgG / anti-mouse IgG1 reagents; also called 2-C8-A (10 µg/ml)) VH: EVQLVESGGGLVQPGGSQRLSCAASGFTFSSYWMNWVRQAPGKGLEWVANIKEDGSEKYYVDSVKGRFTISRDNAKNSLYLQMNSLRAEDTAVYYCARDPGWAPFDYWGQGTLVTVSS VL: DIQMSQSPSSLSASVGDRVTITCRASQGISNYLAWFQQKPGKAPKSLIYAASSLQSGVPSKFSGSGSGTDFTLAISSLQPEDFATYYCQQYNSFPYTFGQGTTLEIK",89 % SC16 Max Killing,no binding,no binding,15 ratio,7.71 ratio,62.9 % of the Control Reference Monoclonal Antibody,11.9 ratio,1.76 ratio,1.5 ratio
"10-O18-A (antibody, V domains shown, Purified hybridoma monoclonal from Ablexis AlivaMAb Kappa mice; the antibody was captured on anti-mouse Fc sensors and detected with anti-mouse IgG / anti-mouse IgG1 reagents; also called 10-018-A; 10-O18-A (10 µg/ml)) VH: QVQLQESGPGLVKPSETLSLTCTVSGGSINSYYWSWIRQPPGKGLEWIGYIFYSGITNYNPSLKSRVTISLDTSKNQFSLKLSSVTAADTAVYYCARIGVAGFYFDYWGQGTLVTVSS VL: not shown",,no binding,no binding,9.85 ratio,4.74 ratio,,9.4 ratio,1.56 ratio,0.99 ratio
"7-I1-B (antibody, V domains shown, Purified hybridoma monoclonal from Ablexis AlivaMAb Kappa mice; the antibody was captured on anti-mouse Fc sensors and detected with anti-mouse IgG / anti-mouse IgG1 reagents; also called 7-I1-B (10 µg/ml)) VH: EVQLVESGGGLVKPGGSLRLSCAASGFTFSNTWMSWVRQAPGKGLEWVGRIKSKSDGGTTDYAAPVKGRFTISRDDSKNTLYLQMNSLKTEDTAVYYCTQYYWNSFDYWGQGTLVTVSS VL: not shown",97 % SC16 Max Killing,,no binding,18.7 ratio,9.74 ratio,70.1 % of the Control Reference Monoclonal Antibody,19.2 ratio,1.68 ratio,4.7 ratio
"6-G23-F (antibody, V domains shown, Purified hybridoma monoclonal from Ablexis AlivaMAb Kappa mice (human immunoglobulin repertoire); the antibody was captured on anti-mouse Fc sensors and detected with anti-mouse IgG / anti-mouse IgG1 reagents; also called 6-G23-F (10 µg/ml)) VH: QVQLVQSGAEVKKPGASVKVSCKASGYTFTSYYIHWVRQAPGQGLEWMGIIDPSDGSTNYAQKFQGRVTMTRDTSTSTVYMELSSLRSEDTAVYYCARDREYNYYGLDVWGQGTTVTVSS VL: not shown",94 % SC16 Max Killing,no binding,no binding,13.1 ratio,6.33 ratio,76.5 % of the Control Reference Monoclonal Antibody,11.1 ratio,1.67 ratio,3.97 ratio

# — patent US20220348648A1 (Memorial Sloan Kettering, published 2022)
